From US20060045884A1 (BOARD OF REGENTS, published 2006)

B1: CCNE1144-152 (cyclin E1 derived nonameric peptide) (peptide)
peptide: ILLDWLMEV
notes: also called cyclin E1 peptide
B2: CCNE2144-152 (cyclin E2 derived nonameric peptide) (peptide)
peptide: ILLDWLLEV
notes: also called cyclin E2 peptide
B3: MY3 peptide (myeloperoxidase derived) (peptide)
peptide: LLSYFKQPV
B4: MY2 peptide (myeloperoxidase derived) (peptide)
peptide: KLLLALAGL
B5: MY4 peptide (myeloperoxidase derived) (peptide)
peptide: RLFEQVMRI
B6: MY5 peptide (myeloperoxidase derived) (peptide)
peptide: LIQPFMFRL
B7: MY1 peptide (myeloperoxidase derived) (peptide)
peptide: SLWRRPFNV
B8: PR1 peptide (proteinase 3 aa 169-177) (peptide)
peptide: VLQELNVTV
notes: Synthetic peptide, at least 95% pure
B9: PR2 peptide (proteinase 3 derived) (peptide)
peptide: RLFPDFFTRV
notes: Synthetic peptide

Each binder was assayed against T1, HLA-A2.1 (HLA-A*0201) with β2-microglobulin on the surface of T2 cells (human) (assay: peptide-binding assay, HLA-A2 stabilisation on T2 cells; reference peptide PR1).
T1 construct: also called surface HLA-A2.1 on T2

Row | Binder | FI ratio to PR1 (stabilisation of HLA-A2 on T2 cells) [ratio]
1 | B1 | 1.01
2 | B2 | 1.19

These binders were tested against T2, HLA-A2.1 heavy chain with I125-labeled β2-microglobulin (heterotrimer dissociation assay) (human, I^125-labeled) (assay: 125I-β2-microglobulin dissociation from the heterotrimer, gel filtration).
T2 construct: The complex is isolated by HPLC gel filtration; T1/2 is the half-time of β2m dissociation from the complex that holds the tested peptide; also called heterotrimer complex of the HLA-A2.1 heavy chain, peptide, and β2-microglobulin

Row | Binder | binding result
3 | B3 | binds
4 | B4 | binds
5 | B5 | binds
6 | B6 | binds
7 | B7 | binds

What follows are binders tested against T1, HLA-A2.1 (HLA-A*0201) with … (assay: T2 cell HLA-A2.1 stabilisation, flow cytometry (FIG. 34)).

Row | Binder | binding result
8 | B3 | binds
9 | B4 | binds
10 | B5 | binds
11 | B6 | binds
12 | B7 | binds

Each binder was assayed against T2, HLA-A2.1 heavy chain with I125-labeled … (assay: dissociation of 125I-β2-microglobulin from the HLA-A2.1/peptide/β2m heterotrimer, HPLC gel filtration).

Row | Binder | T1/2 [h]
13 | B8 | 24.3
14 | B9 | 2.33
